Test results reported in patent US11672873 (dated 2023).

Experiments:
[1] = biological target: T1, soluble B7H4; assay: SPR; experiment #2, 25 nM B7-H4
T1 chain: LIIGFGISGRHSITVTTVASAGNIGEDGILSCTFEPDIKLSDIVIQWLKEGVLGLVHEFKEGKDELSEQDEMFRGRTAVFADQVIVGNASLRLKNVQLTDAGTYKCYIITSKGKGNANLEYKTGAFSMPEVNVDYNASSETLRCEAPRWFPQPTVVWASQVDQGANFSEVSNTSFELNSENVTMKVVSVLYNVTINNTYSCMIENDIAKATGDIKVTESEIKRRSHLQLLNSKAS

[2] = biological target: T1, soluble B7H4; assay: SPR; experiment #1, 20 nM B7-H4

B1: anti-B7-H4 antibody 801 (antibody, V domains shown)
VH: EVQLVESGGGLVQPGGSLRLSCAASGFTFNSYAMHWVRQAPGKGLEWVSAISGNGGSTRYADSVKGRFTISRDNSKNTLYLQMNSLRAEDTAVYYCARDRFRKVHGFDVWGQGTLVTVSS
VL: DIQMTQSPSSLSASVGDRVTITCQASQDISNYLNWYQQKPGKAPKLLIYDASNLETGVPSRFSGSGSGTDFTFTISSLQPEDIATYYCQQDATFPLTFGQGTKVEIK
[1]
  Kd: 0.383 nM
[2]
  Kd: 0.175 nM

B2: anti-B7-H4 antibody 817 (antibody, V domains shown)
VH: EVQLVESGGGLVQPGGSLRLSCAASGFTFSSYAMHWVRQAPGKGLEWVSAISGSGGSTRYADSVKGRFTISRDNSKNTLYLQMNSLRAEDTAVYYCARGRWSKWGFDVWGQGTLVTVSS
VL: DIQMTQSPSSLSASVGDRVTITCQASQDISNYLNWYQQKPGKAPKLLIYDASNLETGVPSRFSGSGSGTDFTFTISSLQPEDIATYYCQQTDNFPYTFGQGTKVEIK
[1]
  Kd: 0.119 nM
[2]
  Kd: 0.079 nM
